According to article PMC3859839:
Like-named read-outs stand apart in the source and are kept apart here.

Tests used:
Assay in all cases: fluorescence anisotropy
[1] = molecular target: PsaR D7A (Streptococcus pneumoniae D39, UniProt A0A0H2ZQ59 1-216, D7A)
[2] = molecular target: PsaR E99A (Streptococcus pneumoniae D39, UniProt A0A0H2ZQ59 1-216, E99A)
[3] = molecular target: T1, PsaR wild-type (Streptococcus pneumoniae D39, UniProt A0A0H2ZQ59 1-216)
[4] = molecular target: T1, PsaR wild-type; remark: listed apart in the source
[5] = molecular target: PsaR D160A (Streptococcus pneumoniae D39, UniProt A0A0H2ZQ59 1-216, D160A)
[6] = molecular target: PsaR H76A (Streptococcus pneumoniae D39, UniProt A0A0H2ZQ59 1-216, H76A)
[7] = molecular target: PsaR H76F (Streptococcus pneumoniae D39, UniProt A0A0H2ZQ59 1-216, H76F)
[8] = molecular target: T1, PsaR wild-type; remark: listed apart in the source
[9] = molecular target: PsaR H125A (Streptococcus pneumoniae D39, UniProt A0A0H2ZQ59 1-216, H125A)

B1: PsaO (psaBCA operator) (dsDNA)
DNA 1: TTCAAAAATTAACTTGACTTAATTTTTTTT
DNA 2: AAAAAAAATTAAGTCAAGTTAATTTTTGAA
Ka [1]: 7.22 ± 0.03 log10 M-1
Ka [2]: 9.27 ± 0.05 log10 M-1
Ka [3]: 10.1 ± 0.1 log10 M-1
Ka [4]: 8.02 ± 0.03 log10 M-1
Ka [5]: 9.8 ± 0.1 log10 M-1
Ka [6]: 9.6 ± 0.1 log10 M-1
Ka [7]: 8.54 ± 0.06 log10 M-1
Ka [8]: 10.6 ± 0.1 log10 M-1
Ka [9]: 10.4 ± 0.1 log10 M-1
